The record followed here is the supplement of paper PMC5998384.

Series [1] concerns HeLa Kyoto. Kind of series: thermal stability score vs G1/S (z-score of summed log2 fold changes over temperatures); higher = more thermally stable than in G1/S.
For series [2], the system named is HeLa Kyoto. Kind of series: solubility change mitosis vs G1/S (difference of NP-40 vs SDS log2 ratios) (log2 ratio difference); higher = more soluble in mitosis.
In series [3] the test system is HeLa Kyoto. Kind of series: melting temperature (median over replicates), in situ; higher = more thermally stable.
The subject of series [4] is HeLa Kyoto. Kind of series: solubility in G1/S (NP-40 vs SDS abundance) (log2 ratio); higher = more soluble. To be noted: cell cycle stage: G1/S.
Setting [5] is: cell cycle stage: early G1 (4.5 h after nocodazole release).
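Wherever melting temperature (median over replicates), in situ is given: HeLa Kyoto cells synchronized by double thymidine or nocodazole block, proteins quantified by TMT10plex mass spectrometry, three independent biological replicates.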
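Wherever solubility change mitosis vs G1/S (difference of NP-40 vs SDS log2 ratios) is given: synchronized HeLa Kyoto cells (double thymidine block for G1/S, nocodazole release for mitosis), protein amounts in NP-40 versus SDS lysates quantified by mass spectrometry, three biological replicates.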
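Wherever solubility in G1/S (NP-40 vs SDS abundance) is given: HeLa Kyoto cells arrested at G1/S by double thymidine block, proteins quantified by TMT10plex mass spectrometry in mild NP-40 versus SDS extracts, three biological replicates.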
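Wherever thermal stability score vs G1/S (z-score of summed log2 fold changes over temperatures) is given: synchronized HeLa Kyoto cells, proteins quantified by TMT10plex mass spectrometry, three biological replicates, mitosis taken 0.5 h after nocodazole release, G1/S directly after double thymidine block.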

For the substance “MGEKSENCGVPEDLLNGLKVTDTQEAECAGPPVPDPKNQHSQSKLLRDDEAHLQEDQGEEECFHDCSASFEEEPGADKVENKSNEDVNSSELDEEYLIELEKNMSDEEKQKRREESTRLKEEGNEQFKKGDYIEAESSYSRALEMCPSCFQKERSILFSNRAAARMKQDKKEMAINDCSKAIQLNPSYIRAILRRAELYEKTDKLDEALEDYKSILEKDPSIHQAREACMRLPKQIEERNERLKEEMLGKLKDLGNLVLRPFGLSTENFQIKQDSSTGSYSINFVQNPNNNR [TTC1]”, the thermal stability score with HeLa Kyoto [1] (setting [5]) was -3; with HeLa Kyoto [1] (cell cycle stage: mitosis), -2.41. Also, the “solubility change mitosis (log2)” value in the series on HeLa Kyoto [2] worked out at 0.183. The melting temperature in the series with HeLa Kyoto [3] (cell cycle stage: G1/S) was found to be 56.2 °C; in the series on HeLa Kyoto [3] (cell cycle stage: mitosis), 56.4 °C. In the series with HeLa Kyoto [4], the “solubility in G1/S (log2)” value came to 0.455.

Regarding GNL2, the thermal stability score turned out to be 4.89 in the series with HeLa Kyoto [1] (setting [5]) and 6.37 with HeLa Kyoto [1] (cell cycle stage: mitosis). Moreover, the “solubility change mitosis (log2)” value in the series on HeLa Kyoto [2] amounted to 1.08. Moreover, the melting temperature with HeLa Kyoto [3] (cell cycle stage: G1/S) stood at 51.2 °C; with HeLa Kyoto [3] (cell cycle stage: mitosis), 52.7 °C. Moreover, the “solubility in G1/S (log2)” value with HeLa Kyoto [4] is -2.3.

On to “MWRLRRAAVACEVCQSLVKHSSGIKGSLPLQKLHLVSRSIYHSHHPTLKLQRPQLRTSFQQFSSLTNLPLRKLKFSPIKYGYQPRRNFWPARLATRLLKLRYLILGSAVGGGYTAKKTFDQWKDMIPDLSEYKWIVPDIVWEIDEYIDFEKIRKALPSSEDLVKLAPDFDKIVESLSLLKDFFTSGSPEETAFRATDRGSESDKHFRKVSDKEKIDQLQEELLHTQLKYQRILERLEKENKELRKLVLQKDDKGIHHRKLKKSLIDMYSEVLDVLSDYDASYNTQDHLPRVVVVGDQSAGKTSVLEMIAQARIFPRGSGEMMTRSPVKVTLSEGPHHVALFKDSSREFDLTKEEDLAALRHEIELRMRKNVKEGCTVSPETISLNVKGPGLQRMVLVDLPGVINTVTSGMAPDTKETIFSISKAYMQNPNAIILCIQDGSVDAERSIVTDLVSQMDPHGRRTIFVLTKVDLAEKNVASPSRIQQIIEGKLFPMKALGYFAVVTGKGNSSESIEAIREYEEEFFQNSKLLKTSMLKAHQVTTRNLSLAVSDCFWKMVRESVEQQADSFKATRFNLETEWKNNYPRLRELDRNELFEKAKNEILDEVISLSQVTPKHWEEILQQSLWERVSTHVIENIYLPAAQTMNSGTFNTTVDIKLKQWTDKQLPNKAVEVAWETLQEEFSRFMTEPKGKEHDDIFDKLKEAVKEESIKRHKWNDFAEDSLRVIQHNALEDRSISDKQQWDAAIYFMEEALQARLKDTENAIENMVGPDWKKRWLYWKNRTQEQCVHNETKNELEKMLKCNEEHPAYLASDEITTVRKNLESRGVEVDPSLIKDTWHQVYRRHFLKTALNHCNLCRRGFYYYQRHFVDSELECNDVVLFWRIQRMLAITANTLRQQLTNTEVRRLEKNVKEVLEDFAEDGEKKIKLLTGKRVQLAEDLKKVREIQEKLDAFIEALHQEK [OPA1]”, for which the thermal stability score with HeLa Kyoto [1] (setting [5]) turned out to be 1.61; with HeLa Kyoto [1] (cell cycle stage: mitosis), 0.517. The “solubility change mitosis (log2)” value in the series with HeLa Kyoto [2] was -0.0649. The melting temperature was determined as 51.3 °C with HeLa Kyoto [3] (cell cycle stage: G1/S) and 51 °C with HeLa Kyoto [3] (cell cycle stage: mitosis). For the same substance, in the series with HeLa Kyoto [4], the “solubility in G1/S (log2)” value is -0.149.

For “MEDVEARFAHLLQPIRDLTKNWEVDVAAQLGEYLEELDQICISFDEGKTTMNFIEAALLIQGSACVYSKKVEYLYSLVYQALDFISGKRRAKQLSSVQEDRANGVASSGVPQEAENEFLSLDDFPDSRTNVDLKNDQTPSEVLIIPLLPMALVAPDEMEKNNNPLYSRQGEVLASRKDFRMNTCVPHPRGAFMLEPEGMSPMEPAGVSPMPGTQKDTGRTEEQPMEVSVCRSPVPALGFSQEPGPSPEGPMPLGGGEDEDAEEAVELPEASAPKAALEPKESRSPQQSAALPRRYMLREREGAPEPASCVKETPDPWQSLDPFDSLESKPFKKGRPYSVPPCVEEALGQKRKRKGAAKLQDFHQWYLAAYADHADSRRLRRKGPSFADMEVLYWTHVKEQLETLRKLQRREVAEQWLRPAEEDHLEDSLEDLGAADDFLEPEEYMEPEGADPREAADLDAVPMSLSYEELVRRNVELFIATSQKFVQETELSQRIRDWEDTVQPLLQEQEQHVPFDIHTYGDQLVSRFPQLNEWCPFAELVAGQPAFEVCRSMLASLQLANDYTVEITQQPGLEMAVDTMSLRLLTHQRAHKRFQTYAAPSMAQP [NCAPH2]”, the thermal stability score is -0.208 with HeLa Kyoto [1] (setting [5]) and -0.203 in the series on HeLa Kyoto [1] (cell cycle stage: mitosis). Moreover, in the series on HeLa Kyoto [2], the “solubility change mitosis (log2)” value amounted to 0.0239. Further, the values for the melting temperature in the series with HeLa Kyoto [3] (cell cycle stage: G1/S) and in the series with HeLa Kyoto [3] (cell cycle stage: mitosis) were 48.5 °C and 48.6 °C, respectively. In addition, the “solubility in G1/S (log2)” value in the series on HeLa Kyoto [4] is 0.197.

As for ASL, the thermal stability score in the series with HeLa Kyoto [1] (setting [5]) came out at 3.02; in the series with HeLa Kyoto [1] (cell cycle stage: mitosis), 4.07. For the same substance, the “solubility change mitosis (log2)” value with HeLa Kyoto [2] is 0.00521. Besides, the melting temperature amounted to 51.4 °C in the series with HeLa Kyoto [3] (cell cycle stage: G1/S) and 52.1 °C in the series with HeLa Kyoto [3] (cell cycle stage: mitosis). Also, the “solubility in G1/S (log2)” value in the series on HeLa Kyoto [4] was -0.0391.

As to MKI67, the figures for the thermal stability score in the series with HeLa Kyoto [1] (setting [5]) and in the series with HeLa Kyoto [1] (cell cycle stage: mitosis) were 5.66 and 0.979, respectively. Besides, the “solubility change mitosis (log2)” value in the series with HeLa Kyoto [2] stood at 1.29. For the same substance, the results for the melting temperature in the series on HeLa Kyoto [3] (cell cycle stage: G1/S) and in the series on HeLa Kyoto [3] (cell cycle stage: mitosis) were 49.4 °C and 52 °C, respectively. Moreover, in the series on HeLa Kyoto [4], the “solubility in G1/S (log2)” value is -1.82.
